Results as given in the supplement of paper PMC10126150.
± gives the standard deviation of the averaged measurements.

System: ATP
Test: switch fluorescence ratio, 500 uM ATP over buffer (Cy3 cluster intensity, sum of 5 cycles each) (fold (ratio)); higher = stronger signal-on switching upon ATP binding; sequences stand for … in TCGTCGGCAGCGTCAGATGTGTATAAGAGACAGTTTTTTTTTTTTTTTTTTTTTTTTT…TC
Settings: aptamer strand: ATP DNA aptamer (quencher-CACCTGGGGGAGTATTGCGGAGGAAGG + anchor), 100 nM annealed; ATP concentration: 500 uM
Outline: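 Five buffer/ATP imaging cycles were run on Cy3-labelled switching-strand clusters on a modified Illumina MiSeq flow-cell, with NaOH stripping and re-annealing between cycles. In each cycle, clusters annealed to 100 nM quencher-labelled ATP aptamer were imaged in selection buffer, then after 15 min with 500 uM ATP at 22 °C. Per cluster, the fluorescence ratio is summed target-cycle over summed buffer-cycle Cy3 intensity, averaged per switch-domain sequence. Only clusters within 100-1000 RFU were kept.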
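Further: ATP exposure 15 min at 22 °C before imaging.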

Sequence | switch fluorescence ratio
TCCAGTAGGT | 1.01 ± 0.0032
TCCAGTTAGT | 0.977 ± 0.013
TCCATACTGG | 1.004 ± 0.0073
TCCATAGGGC | 1.002 ± 0.0048
TCCATATGCT | 0.9941 ± 0.0093
TCCATGGGGT | 0.9836 ± 0.0079
TCCATTAGAT | 1.019 ± 0.0066
TCCATTGTCC | 1.08 ± 0.052
TCCATTTTAA | 1.055 ± 0.0017
TCCCAGAACG | 1.062 ± 0.0077
TCCCAGCTGT | 1.12 ± 0.033
TCCCGTATCC | 1.07 ± 0.036
TCCCTTAGAG | 1.037 ± 0.0024
TCCGAACCTT | 1.88 ± 0.086
TCCGAGAGAG | 1.25 ± 0.053
TCCGCAGATT | 4.02 ± 0.047
TCCGGCTATT | 1.108 ± 0.0087
TCCGGGAGTG | 1.078 ± 0.0027
TCCGGGCAGG | 1.14 ± 0.023
TCCGGGCTGG | 1.02 ± 0.013
TCCGGGGGAG | 1 ± 0.023
TCCGGGGGAT | 1.32 ± 0.38
TCCGGGGGTA | 1.12 ± 0.12
TCCGGGTAGG | 1.036 ± 0.0049
TCCGGGTATT | 1.078 ± 0.0025

Sequence | switch fluorescence ratio
TCCGGTTGCA | 2.49 ± 0.12
TCCGTGTCTA | 1.07 ± 0.022
TCCGTGTGGT | 1.07 ± 0.051
TCCGTTGGGG | 1.05 ± 0.15
TCCTCAAGTT | 1.23 ± 0.015
TCCTCAGGAT | 1.02 ± 0.018
TCCTCGTCTC | 1.69 ± 0.038
TCCTGAAAAC | 1.1 ± 0.087
TCCTGAAATT | 0.987 ± 0.015
TCCTGAGGAT | 1 ± 0.058
TCCTGCATGG | 1.22 ± 0.037
TCCTGGGAT | 1.01 ± 0.03
TCCTGGGTAT | 1.69 ± 0.98
TCCTGGGTTT | 1.27 ± 0.48
TCCTGTACTG | 1.04 ± 0.062
TCCTTAGTTC | 0.969 ± 0.035
TCCTTCTTTA | 1.38 ± 0.43
TCCTTGGTCG | 1.04 ± 0.031
TCGAAAAGGG | 0.992 ± 0.015
TCGAAACGGG | 1.14 ± 0.24
TCGAAGAGCG | 0.976 ± 0.045
TCGAAGCCAG | 1.061 ± 0.0045
TCGAAGCCTA | 1.17 ± 0.02
TCGAAGGGTG | 0.999 ± 0.04
TCGAAGTATC | 1.12 ± 0.058

Sequence | switch fluorescence ratio
TCGAATGGAT | 0.991 ± 0.011
TCGAATGGGG | 0.961 ± 0.014
TCGACAGTCC | 1.037 ± 0.0085
TCGACGGGTG | 1.02 ± 0.043
TCGACTGCGT | 1.056 ± 0.005
TCGAGGAAGT | 0.999 ± 0.062
TCGAGGATGT | 0.976 ± 0.019
TCGAGGGAAC | 1.03 ± 0.018
TCGAGGGCGA | 1.146 ± 0.0097
TCGAGGGTAG | 1.02 ± 0.018
TCGAGGTCGA | 1.01 ± 0.039
TCGAGTTG | 0.9972 ± 0.0093
TCGATACTTT | 1.03 ± 0.021
TCGATCCTGA | 0.998 ± 0.032
TCGATGGACT | 1.03 ± 0.014
TCGATGGATG | 1.025 ± 0.0058
TCGATGGCAG | 1.059 ± 0.0033
TCGATGTGTT | 0.9592 ± 0.0086
TCGATGTTGG | 0.984 ± 0.03
TCGATTGGGG | 0.9682 ± 0.0089
TCGCATCCTT | 0.989 ± 0.017
TCGCATTTTT | 1.11 ± 0.13
TCGCCCTCCA | 1.26 ± 0.12
TCGCCGAAAT | 1.7 ± 0.35
TCGCGAATGG | 1.11 ± 0.02

Sequence | switch fluorescence ratio
TCGCGGCTAT | 1.56 ± 0.61
TCGCGTTTGC | 1.06 ± 0.054
TCGCTATGCC | 0.991 ± 0.13
TCGCTCACGG | 1.03 ± 0.021
TCGCTGGTTG | 0.996 ± 0.022
TCGCTTGTTG | 1.03 ± 0.022
TCGCTTTT | 1.02 ± 0.02
TCGGAAAATA | 1.01 ± 0.026
TCGGAAAGGA | 0.9814 ± 0.0016
TCGGAATGGC | 1.27 ± 0.23
TCGGACTAGG | 1 ± 0.031
TCGGAGAATG | 1.003 ± 0.01
TCGGAGATTT | 0.97302 ± 0.00083
TCGGAGGCGG | 1.007 ± 0.0069
TCGGAGGGAG | 1.02 ± 0.056
TCGGAGTGCG | 1.006 ± 0.0062
TCGGAGTGCT | 1.04 ± 0.042
TCGGAGTGGC | 1.2 ± 0.19
TCGGAGTTAG | 1.04 ± 0.022
TCGGATAGAG | 0.949 ± 0.058
TCGGATCATT | 0.9775 ± 0.0039
TCGGATGAGG | 1 ± 0.042
TCGGATGCGT | 1.03 ± 0.035
TCGGCACATT | 1.46 ± 0.63
TCGGCATCGG | 1 ± 0.021

Sequence | switch fluorescence ratio
TCGGCCTGCT | 1.01 ± 0.021
TCGGCGGCTG | 0.984 ± 0.01
TCGGCGGGTC | 0.9973 ± 0.0015
TCGGCTATGG | 1.01 ± 0.011
TCGGCTGGAA | 1.027 ± 0.0025
TCGGCTGGGG | 0.991 ± 0.014
TCGGCTTGTT | 1.02 ± 0.02
TCGGGAAGAG | 0.98832 ± 5e-05
TCGGGAAGGA | 1.01 ± 0.031
TCGGGAGAAT | 1.01 ± 0.015
TCGGGAGGCT | 1 ± 0.028
TCGGGAGTGG | 0.9905 ± 0.0016
TCGGGATACG | 1.14 ± 0.021
TCGGGCATAG | 1.06 ± 0.046
TCGGGCGATG | 0.983 ± 0.036
TCGGGCGGGG | 1.036 ± 0.0098
TCGGGGCACG | 0.993 ± 0.052
TCGGGGCAGG | 0.988 ± 0.013
TCGGGGCAGT | 2.01 ± 1.4
TCGGGGCTCC | 2.87 ± 2.6
TCGGGGGACT | 0.9827 ± 0.0063
TCGGGGGAGG | 0.983 ± 0.022
TCGGGGGCTT | 0.996 ± 0.015
TCGGGGGGCC | 1.02 ± 0.074
TCGGGGGGGA | 1.06 ± 0.14

Sequence | switch fluorescence ratio
TCGGGGGTGA | 1 ± 0.021
TCGGGGGTTC | 1.06 ± 0.027
TCGGGGTAAG | 1.03 ± 0.015
TCGGGGTGAC | 1.01 ± 0.018
TCGGGGTTTT | 1.02 ± 0.036
TCGGGTCAGT | 1 ± 0.034
TCGGGTGTGT | 0.9889 ± 0.009
TCGGGTTCCG | 0.963 ± 0.019
TCGGGTTCGG | 0.992 ± 0.032
TCGGGTTGAC | 1.02 ± 0.025
TCGGGTTGG | 1.03 ± 0.02
TCGGTAGGGC | 1.025 ± 0.0089
TCGGTAGTGG | 1 ± 0.028
TCGGTATATA | 1.03 ± 0.033
TCGGTCGACG | 0.962 ± 0.027
TCGGTCGATT | 1.019 ± 0.0031
TCGGTGATAC | 4.52 ± 1.3
TCGGTTAATG | 1 ± 0.042
TCGGTTGGGA | 0.986 ± 0.038
TCGGTTTAGG | 1.011 ± 0.0076
TCGGTTTCAA | 1.009 ± 0.0056
TCGTAAACGG | 1.01 ± 0.02
TCGTACAGGG | 1.03 ± 0.047
TCGTACGCTA | 3.38 ± 0.084
TCGTAGTGGC | 1.11 ± 0.1

Sequence | switch fluorescence ratio
TCGTAGTGGG | 1.01 ± 0.054
TCGTAGTTGC | 1.24 ± 0.027
TCGTATAAGG | 0.982 ± 0.037
TCGTATAGAG | 1 ± 0.017
TCGTATATTA | 1.02 ± 0.013
TCGTATGATA | 0.968 ± 0.036
TCGTATTGGT | 1.02 ± 0.023
TCGTATTGTG | 0.975 ± 0.032
TCGTCCGGAG | 1.55 ± 0.016
TCGTCCGGCG | 0.96503 ± 0.00055
TCGTCGAACG | 0.988 ± 0.04
TCGTGCAGTT | 1.01 ± 0.015
TCGTGGATGG | 1 ± 0.026
TCGTGGGAAG | 0.9721 ± 0.0062
TCGTGGGGGG | 0.991 ± 0.031
TCGTGGGTAT | 0.998 ± 0.025
TCGTGTACGG | 1.04 ± 0.016
TCGTGTAGCT | 1 ± 0.03
TCGTGTGTTC | 1.022 ± 0.0047
TCGTGTTTTC | 1.03 ± 0.083
TCGTTATGTG | 0.9829 ± 0.0085
TCGTTGGATG | 0.9829 ± 0.0013
TCGTTGGGAT | 0.986 ± 0.053
TCGTTGGGGT | 0.987 ± 0.029
TCGTTTGCGT | 0.984 ± 0.032

Sequence | switch fluorescence ratio
TCGTTTGGAG | 0.998 ± 0.022
TCGTTTGGGG | 1.05 ± 0.061
TCGTTTGGGT | 0.978 ± 0.035
TCGTTTTCCT | 1.02 ± 0.043
TCTAAATCTT | 1.01 ± 0.011
TCTAAGTAAC | 1 ± 0.025
TCTAAGTATT | 1.02 ± 0.026
TCTAAGTTGT | 1.002 ± 0.0058
TCTAATTGGG | 1.01 ± 0.037
TCTAATTTCC | 1.05 ± 0.045
TCTAGTTTAT | 0.987 ± 0.033
TCTATAATGT | 0.965 ± 0.025
TCTATACTTT | 1 ± 0.021
TCTATGGCTA | 1.03 ± 0.03
TCTATGGGGG | 0.986 ± 0.019
TCTATGGTGA | 1.0391 ± 0.00096
TCTATTGTAA | 0.991 ± 0.049
TCTATTTGCA | 1 ± 0.042
TCTATTTGTA | 0.9993 ± 0.0071
TCTATTTTGT | 0.988 ± 0.017
TCTCACGGAA | 1.68 ± 0.19
TCTCGACTCA | 0.999 ± 0.02
TCTCGCGGGA | 0.97 ± 0.023
TCTCGGGGCG | 1 ± 0.055
TCTCTTCCGT | 1.22 ± 0.056
